The values below come from paper doi:10.1101/797027 (bioRxiv, 2019).

What is called Kd is the equilibrium constant for the complex coming apart. Read a low Kd as a tighter complex.

One assay has as its target ubiquitin (UniProt P0CG48 1-76). The assay can be described thus: NMR titration.
Another assay has as its target T1, GST-hRpn10^305–377 (human, UniProt P55036 305-377).
T1 sequence (looked up): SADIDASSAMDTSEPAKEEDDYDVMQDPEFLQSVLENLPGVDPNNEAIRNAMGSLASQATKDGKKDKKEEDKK
Put plainly: SPR. (In general: In SPR one partner is held on a chip, and binding of the other changes the refractive index at the surface.)

The target of assay [1] is T2, hRpn10^305–377 (RAZUL, Rpn10 AZUL binding domain) (human, UniProt P55036 305-377).
T2 sequence (looked up): T1 sequence (looked up)
Put plainly: ITC. A general note: In ITC the heat of successive injections is recorded.

B1: His-hRpn10^196–377 (domain or fragment)
chain: MLGLGASDFEFGVDPSADPELALALRVSMEEQRQRQEEEARRAAAASAAEAGIATTGTEDSDDALLKMTISQQEFGRTGLPDLSSMTEEEQIAYAMQMSLQGAEFGQAESADIDASSAMDTSEPAKEEDDYDVMQDPEFLQSVLENLPGVDPNNEAIRNAMGSLASQATKDGKKDKKEEDKK
For B1, the binding result with ubiquitin is given as “binds”.

B2: E6AP AZUL domain, E6AP[24–87] (domain or fragment, human, UniProt Q05086 24-87, looked up)
chain: MKRAAAKHLIERYYHQLTEGCGNEACTNEFCASCPTFLRMDNNAAAIKALELYKINAKLCDPHP
B2: the Kd in the assay with GST-hRpn10^305–377 stood at 8.1 nM; in assay [1] it was 11.6 nM.
